EC50 data for three molecules are collected here from US20150064184A1 (ARMAGEN TECHNOLOGIES, published 2015).

The target in assay [1] is T1, human insulin receptor extracellular domain (HIR ECD) (human, UniProt P06213 28-956, limits assumed).
T1 construct: extracellular domain; The ECD was plated on 96-well dishes for the ELISA
Briefly: ELISA, HIR ECD plated (second experiment).

The target in assay [2] is T1, human insulin receptor extracellular …. Briefly: ELISA, HIR ECD plated on Nunc-Maxisorb wells, detected with biotinylated anti-human IgG. How it is done: (§1) The affinity of the fusion protein for the HIR extracellular domain (ECD) was determined with an ELISA. CHO cells permanently transfected with the HIR ECD were grown in serum free media (SFM), and the HIR ECD was purified with a wheat germ agglutinin affinity column, as previously described in Coloma et al. (2000) Pharm Res, 17:266-274. The HIR ECD was plated on Nunc-Maxisorb 96 well dishes and the binding of the HIR Ab, or the HIR Ab-ASA fusion protein, to the HIR ECD was detected with a biotinylated goat anti-human IgG (H+L) secondary antibody, followed by avidin and biotinylated peroxidase (Vector Labs, Burlingame, Calif.). […] The MW of the HIR Ab is 150 kDa, and the MW of the HIR Ab-ASA fusion protein is 288 kDa.
A general note: ELISA stands for enzyme-linked immunosorbent assay.

For assay [3] the target is unchanged. Briefly: ELISA, HIR ECD plated; normalised for a MW of 150 kDa. How it is done:
as §1

The target is the same in assay [4]. Briefly: ELISA, HIR ECD plated, detected with biotinylated anti-human IgG.
For assay [5] the target is unchanged. As to the kind of experiment: ELISA, HIR ECD plated; normalised for a MW of 288 kDa. How it is done:
as §1

B1: chimeric HIRMAb (chimeric monoclonal antibody against the human insulin receptor) (antibody, human IgG1, kappa)
heavy: not shown
light: DIQMTQSPSSLSASLGERVSLTCRASQDIGGNLYWLQQGPDGTIKRLIYATSSLDSGVPKRFSGSRSGSDYSLTISSLESEDFVDYYCLQYSSSPWTFGGGTKMEIKRTVAAPSVFIFPPSDEQLKSGTASVVCLLNNFYPREAKVQWKVDNALQSGNSQESVTEQDSKDSTYSLSSTLTLSKADYEKHKVYACEVTHQGLSSPVTKSFNRGEC
notes: MW 150 kDa; also called HIR Ab; chimeric HIR Ab
As to B1, the EC50 worked out at 0.25 nM in assay [1], 0.035 µg/mL in assay [2], 0.23 nM in assay [3] and 0.77 nM in assay [4].

B2: HIR Ab-GUSB fusion protein (human GUSB fused to the carboxyl terminus of the HIR Ab heavy chain) (antibody, human IgG1, kappa)
heavy: not shown
light: DIQMTQSPSSLSASLGERVSLTCRASQDIGGNLYWLQQGPDGTIKRLIYATSSLDSGVPKRFSGSRSGSDYSLTISSLESEDFVDYYCLQYSSSPWTFGGGTKMEIKRTVAAPSVFIFPPSDEQLKSGTASVVCLLNNFYPREAKVQWKVDNALQSGNSQESVTEQDSKDSTYSLSSTLTLSKADYEKHKVYACEVTHQGLSSPVTKSFNRGEC
notes: range 23-633; also called HIRMAb-GUSB fusion protein; pCD-HC-GUSB plus pCD-LC product
In assay [4], B2 displayed an EC50 of 0.81 nM. This counts as sub-nanomolar.

B3: HIRMAb-ASA fusion protein (HIR Ab fused at the carboxyl terminus of each heavy chain to mature human arylsulfatase A) (antibody, human IgG1, kappa)
heavy: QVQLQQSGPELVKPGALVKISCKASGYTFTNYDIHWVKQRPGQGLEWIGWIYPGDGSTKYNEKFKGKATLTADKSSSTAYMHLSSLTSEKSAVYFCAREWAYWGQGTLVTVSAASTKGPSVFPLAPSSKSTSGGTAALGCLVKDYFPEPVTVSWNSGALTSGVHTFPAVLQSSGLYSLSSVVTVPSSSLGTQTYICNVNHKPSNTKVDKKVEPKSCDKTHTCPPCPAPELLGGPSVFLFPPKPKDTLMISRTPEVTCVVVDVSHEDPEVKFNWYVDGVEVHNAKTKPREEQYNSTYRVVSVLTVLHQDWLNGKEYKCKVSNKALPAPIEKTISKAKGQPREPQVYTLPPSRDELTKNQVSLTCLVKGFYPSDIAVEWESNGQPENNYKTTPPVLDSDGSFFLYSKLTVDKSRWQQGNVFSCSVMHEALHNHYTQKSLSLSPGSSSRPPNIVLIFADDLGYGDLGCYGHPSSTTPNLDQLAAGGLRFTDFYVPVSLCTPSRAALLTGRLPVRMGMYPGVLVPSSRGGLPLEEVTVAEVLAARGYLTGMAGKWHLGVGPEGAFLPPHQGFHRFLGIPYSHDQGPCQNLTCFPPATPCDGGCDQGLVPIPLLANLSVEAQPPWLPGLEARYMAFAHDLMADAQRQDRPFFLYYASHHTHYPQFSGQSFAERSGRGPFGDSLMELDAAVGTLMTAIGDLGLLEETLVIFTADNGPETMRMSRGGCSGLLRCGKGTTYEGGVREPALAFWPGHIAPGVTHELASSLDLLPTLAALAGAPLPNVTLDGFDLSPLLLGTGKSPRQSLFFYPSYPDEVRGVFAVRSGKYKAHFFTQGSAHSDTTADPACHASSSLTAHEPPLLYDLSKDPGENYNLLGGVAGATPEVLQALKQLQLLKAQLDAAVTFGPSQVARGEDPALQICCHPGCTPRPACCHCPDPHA
light: DIQMTQSPSSLSASLGERVSLTCRASQDIGGNLYWLQQGPDGTIKRLIYATSSLDSGVPKRFSGSRSGSDYSLTISSLESEDFVDYYCLQYSSSPWTFGGGTKMEIKRTVAAPSVFIFPPSDEQLKSGTASVVCLLNNFYPREAKVQWKVDNALQSGNSQESVTEQDSKDSTYSLSSTLTLSKADYEKHKVYACEVTHQGLSSPVTKSFNRGEC
modifications: Cys-515 of SEQ ID NO 10 undergoes post-translational conversion to formylglycine (inferred by the filing from retained enzyme activity)
notes: Antibody-enzyme fusion made in CHO cells and purified on protein A. Hetero-tetramer with an estimated MW of 288 kDa; also called HIR Ab-ASA fusion protein; HIR Ab-ASA fusion antibody
B3: the EC50 in assay [2] was determined as 0.106 µg/mL; in assay [5], 0.34 nM.

As usually defined, the EC50 is the concentration needed to bring the measured effect to its halfway point. Higher therefore signals lower potency in that assay.
